Our source for the β-galactosidase activity values is paper doi:10.1101/713677.

For the experiment, the target named is zip (positive control of the BACTH system). Briefly: two-hybrid.

“zip (positive control of the BACTH system) (domain or fragment)” gave a β-galactosidase activity of 63300 Miller units.
